Experimental data from FireProtDB (doi:10.1016/j.str.2006.07.007).

B1: Azurin, P00282 (parent)
chain: MLRKLAAVSLLSLLSAPLLAAECSVDIQGNDQMQFNTNAITVDKSCKQFTVNLSHPGNLPKNVMGHNWVLSTAADMQGVVTDGMASGLDKDYLKPDDSRVIAHTKLIGSGEKDSVTFDVSKLKEGEQYMFFCTFPGHSALMKGTLTLK

Variants of: B1
Conditions: Pseudomonas aeruginosa (strain ATCC 15692 / DSM 22644 / CIP 104116 / JCM 14847 / LMG 12228 / 1C / PRS 101 / PAO1); pH 7; 25 °C; GdnHCl; Fluorescence; Phosphate 100 mM; reversible: Yes; structure 5AZU; whole UniProt chain shown

## MLRKLAAVSLLSLLSAPLLAAECSADIQGNDQMQFNTNAITVDKSCKQFTVNLSHPGNLPKNVMGHNWVLSTAADMQGVVTDGMASGLDKDYLKPDDSRVIAHTKLIGSGEKDSVTFDVSKLKEGEQYMFFCTFPGHSALMKGTLTLK [V25A]
  ddG of mutation (higher = less stable): 0 kcal/mol
  unfolding free energy: 5.98 kcal/mol

## MLRKLAAVSLLSLLSAPLLAAECSVDIQGNDQMQFNTNAITVDKSCKQFTVNLSHPGNLPKNVMGHNWVLSTAADMQGVGTDGMASGLDKDYLKPDDSRVIAHTKLIGSGEKDSVTFDVSKLKEGEQYMFFCTFPGHSALMKGTLTLK [V80G]
  ddG of mutation (higher = less stable): 3.11 kcal/mol
  unfolding free energy: 2.87 kcal/mol

## MLRKLAAVSLLSLLSAPLLAAECSVDIQGNDQMQFNTNAITVDKSCKQFTVNLSHPGNLPKNVMGHNWVLSTAADMQGVVTDGMASGLDKDYLKPDDSRVIGHTKLIGSGEKDSVTFDVSKLKEGEQYMFFCTFPGHSALMKGTLTLK [A102G]
  ddG of mutation (higher = less stable): 3.11 kcal/mol
  unfolding free energy: 2.87 kcal/mol

## MLRKLAAVSLLSLLSAPLLAAECSVDAQGNDQMQFNTNAITVDKSCKQFTVNLSHPGNLPKNVMGHNWVLSTAADMQGVVTDGMASGLDKDYLKPDDSRVIAHTKLIGSGEKDSVTFDVSKLKEGEQYMFFCTFPGHSALMKGTLTLK [I27A]
  ddG of mutation (higher = less stable): 3.11 kcal/mol
  unfolding free energy: 2.87 kcal/mol

## MLRKLAAVSLLSLLSAPLLAAECSVDIQGNDQMQFNTNAITVDKSCKQFTVNLSHPGNLPKNVMGHNWVLSTAADMQGVVTDGMASGLDKDYLKPDDSRVIAHTKLIGSGEKDSVTFDVSKLKEGEQYMFFCTFPGHSALMKGTATLK [L145A]
  ddG of mutation (higher = less stable): 0.72 kcal/mol
  unfolding free energy: 5.26 kcal/mol
